The values below come from article PMC10149743, “Structural studies of the nucleus-like assembly of jumbo bacteriophage 201φ2-1” (Frontiers in Microbiology, 2023).

Data set [1] concerns the molecule itself. The experiment in a line: SEC; truncation mutants of gp105, purified as the wild type, Superose 6 Increase 10/300 GL in buffer B (20 mM HEPES pH 7.5, 150 mM NaCl); self-association. (In general: SEC sorts molecules by how far they enter the pores of the column.)
Data set [2] concerns the molecule itself. Briefly: cryo-EM structure; cube-like particles from the 11.4 ml SEC peak; reconstruction with O symmetry (4.76 Å) and without symmetry (6.41 Å).

B1: gp105Δ(NTS 1–17, CTS 609–631) (domain or fragment, Pseudomonas phage 201phi2-1, UniProt B3FIW8 18-608, looked up)
chain: QAPAQQFTQAPQEKPMQSTQSQPTPSYAGTGGINSQFTRSGNVQGGDARASEALTVFTRLKEQAVAQQDLADDFSILRFDRDQHQVGWSSLVIAKQISLNGQPVIAVRPLILPNNSIELPKRKTNIVNGMQTDVIESDIDVGTVFSAQYFNRLSTYVQNTLGKPGAKVVLAGPFPIPADLVLKDSELQLRNLLIKSVNACDDILALHSGERPFTIAGLKGQQGETLAAKVDIRTQPLHDTVGNPIRADIVVTTQRVRRNGQQENEFYETDVKLNQVAMFTNLERTPQAQAQTLFPNQQQVATPAPWVASVVITDVRNADGIQANTPEMYWFALSNAFRSTHGHAWARPFLPMTGVAKDMKDIGALGWMSALRNRIDTKAANFDDAQFGQLMLSQVQPNPVFQIDLNRMGETAQMDSLQLDAAGGPNAQKAAATIIRQINNLGGGGFERFFDHTTQPILERTGQVIDLGNWFDGDEKRDRRDLDNLAALNAAEGNENEFWGFYGAQLNPNLHPDLRNRQSRNYDRQYLGSTVTYTGKAERCTYNAKFIEALDRYLAEAGLQITMDNTSVLNSGQRFMGNSVIGNNMVSGQAQ
notes: gp105 of Pseudomonas phage 201phi2-1, GenBank ABY62937, residues 1-17 and 609-631 removed; Truncation made by PCR and In-Fusion cloning into pET28a; source: E. coli BL21 (DE3) pLysS, purified using the same method as for the wild type gp105
For the protein B1, the binding result in data set [1] is reported as “binds”.

B2: nucleus-like shell protein gp105 of bacteriophage 201φ2-1, wild type, C-terminal His6 (natural protein, Pseudomonas phage 201phi2-1, UniProt B3FIW8 1-631, looked up)
chain: MIRDTATNTTQTQAAPQQAPAQQFTQAPQEKPMQSTQSQPTPSYAGTGGINSQFTRSGNVQGGDARASEALTVFTRLKEQAVAQQDLADDFSILRFDRDQHQVGWSSLVIAKQISLNGQPVIAVRPLILPNNSIELPKRKTNIVNGMQTDVIESDIDVGTVFSAQYFNRLSTYVQNTLGKPGAKVVLAGPFPIPADLVLKDSELQLRNLLIKSVNACDDILALHSGERPFTIAGLKGQQGETLAAKVDIRTQPLHDTVGNPIRADIVVTTQRVRRNGQQENEFYETDVKLNQVAMFTNLERTPQAQAQTLFPNQQQVATPAPWVASVVITDVRNADGIQANTPEMYWFALSNAFRSTHGHAWARPFLPMTGVAKDMKDIGALGWMSALRNRIDTKAANFDDAQFGQLMLSQVQPNPVFQIDLNRMGETAQMDSLQLDAAGGPNAQKAAATIIRQINNLGGGGFERFFDHTTQPILERTGQVIDLGNWFDGDEKRDRRDLDNLAALNAAEGNENEFWGFYGAQLNPNLHPDLRNRQSRNYDRQYLGSTVTYTGKAERCTYNAKFIEALDRYLAEAGLQITMDNTSVLNSGQRFMGNSVIGNNMVSGQAQVHSAYAGTQGFNTQYQTGPSSFY
notes: gp105 (nucleus-like shell protein, chimallin) of Pseudomonas phage 201phi2-1, GenBank ABY62937; 631 amino acids; synthesised codon-optimised gene in pET28a; residues 1-48 and 583-631 are named as present but not built in the model; Occurs as monomer, 24-mer cube-like particle and large sheet-like assemblies; also called NLSP; source: E. coli BL21 (DE3) pLysS, purified (cobalt resin, Superose 6 …)
On to B2, for which the stoichiometry N (as a rule, the number of molecules, sites or subunits per partner or assembly) in data set [2] turned out to be 24.

B3: gp105Δ(NTS 1–17) (domain or fragment, Pseudomonas phage 201phi2-1, UniProt B3FIW8 18-631, looked up)
chain: QAPAQQFTQAPQEKPMQSTQSQPTPSYAGTGGINSQFTRSGNVQGGDARASEALTVFTRLKEQAVAQQDLADDFSILRFDRDQHQVGWSSLVIAKQISLNGQPVIAVRPLILPNNSIELPKRKTNIVNGMQTDVIESDIDVGTVFSAQYFNRLSTYVQNTLGKPGAKVVLAGPFPIPADLVLKDSELQLRNLLIKSVNACDDILALHSGERPFTIAGLKGQQGETLAAKVDIRTQPLHDTVGNPIRADIVVTTQRVRRNGQQENEFYETDVKLNQVAMFTNLERTPQAQAQTLFPNQQQVATPAPWVASVVITDVRNADGIQANTPEMYWFALSNAFRSTHGHAWARPFLPMTGVAKDMKDIGALGWMSALRNRIDTKAANFDDAQFGQLMLSQVQPNPVFQIDLNRMGETAQMDSLQLDAAGGPNAQKAAATIIRQINNLGGGGFERFFDHTTQPILERTGQVIDLGNWFDGDEKRDRRDLDNLAALNAAEGNENEFWGFYGAQLNPNLHPDLRNRQSRNYDRQYLGSTVTYTGKAERCTYNAKFIEALDRYLAEAGLQITMDNTSVLNSGQRFMGNSVIGNNMVSGQAQVHSAYAGTQGFNTQYQTGPSSFY
notes: gp105 of Pseudomonas phage 201phi2-1, GenBank ABY62937, residues 1-17 removed; Truncation made by PCR and In-Fusion cloning into pET28a; source: E. coli BL21 (DE3) pLysS, purified using the same method as for the wild type gp105
Take B3: the binding result in data set [1] is given as “binds”.

B4: gp105Δ(loop 279–285) (natural protein, Pseudomonas phage 201phi2-1, UniProt B3FIW8 1-631, looked up)
chain: MIRDTATNTTQTQAAPQQAPAQQFTQAPQEKPMQSTQSQPTPSYAGTGGINSQFTRSGNVQGGDARASEALTVFTRLKEQAVAQQDLADDFSILRFDRDQHQVGWSSLVIAKQISLNGQPVIAVRPLILPNNSIELPKRKTNIVNGMQTDVIESDIDVGTVFSAQYFNRLSTYVQNTLGKPGAKVVLAGPFPIPADLVLKDSELQLRNLLIKSVNACDDILALHSGERPFTIAGLKGQQGETLAAKVDIRTQPLHDTVGNPIRADIVVTTQRVRRNGQTDVKLNQVAMFTNLERTPQAQAQTLFPNQQQVATPAPWVASVVITDVRNADGIQANTPEMYWFALSNAFRSTHGHAWARPFLPMTGVAKDMKDIGALGWMSALRNRIDTKAANFDDAQFGQLMLSQVQPNPVFQIDLNRMGETAQMDSLQLDAAGGPNAQKAAATIIRQINNLGGGGFERFFDHTTQPILERTGQVIDLGNWFDGDEKRDRRDLDNLAALNAAEGNENEFWGFYGAQLNPNLHPDLRNRQSRNYDRQYLGSTVTYTGKAERCTYNAKFIEALDRYLAEAGLQITMDNTSVLNSGQRFMGNSVIGNNMVSGQAQVHSAYAGTQGFNTQYQTGPSSFY
notes: gp105 of Pseudomonas phage 201phi2-1, GenBank ABY62937, loop residues 279-285 deleted; source: E. coli BL21 (DE3) pLysS, purified using the same method as for the wild type gp105
Turning to B4, the binding result in data set [1] is recorded as “binds”.

B5: gp105Δ(NTS 1–60) (domain or fragment, Pseudomonas phage 201phi2-1, UniProt B3FIW8 61-631, looked up)
chain: QGGDARASEALTVFTRLKEQAVAQQDLADDFSILRFDRDQHQVGWSSLVIAKQISLNGQPVIAVRPLILPNNSIELPKRKTNIVNGMQTDVIESDIDVGTVFSAQYFNRLSTYVQNTLGKPGAKVVLAGPFPIPADLVLKDSELQLRNLLIKSVNACDDILALHSGERPFTIAGLKGQQGETLAAKVDIRTQPLHDTVGNPIRADIVVTTQRVRRNGQQENEFYETDVKLNQVAMFTNLERTPQAQAQTLFPNQQQVATPAPWVASVVITDVRNADGIQANTPEMYWFALSNAFRSTHGHAWARPFLPMTGVAKDMKDIGALGWMSALRNRIDTKAANFDDAQFGQLMLSQVQPNPVFQIDLNRMGETAQMDSLQLDAAGGPNAQKAAATIIRQINNLGGGGFERFFDHTTQPILERTGQVIDLGNWFDGDEKRDRRDLDNLAALNAAEGNENEFWGFYGAQLNPNLHPDLRNRQSRNYDRQYLGSTVTYTGKAERCTYNAKFIEALDRYLAEAGLQITMDNTSVLNSGQRFMGNSVIGNNMVSGQAQVHSAYAGTQGFNTQYQTGPSSFY
notes: gp105 of Pseudomonas phage 201phi2-1, GenBank ABY62937, residues 1-60 removed; Truncation made by PCR and In-Fusion cloning into pET28a; source: E. coli BL21 (DE3) pLysS, purified using the same method as for the wild type gp105
For the protein B5, the binding result in data set [1] is listed as “binds”.
